Patent US20230025280A1, “PH RESPONSIVE COMPOSITIONS, FORMULATIONS, AND METHODS OF IMAGING A TUMOR” (ONCONANO MEDICINE, INC, priority 2019, published 2023)
Values joined by “and” are separate entries in the source; they are usually repeats but may differ in a detail not shown here. Equal values may be shown once. “Also recorded” adds a separate entry of the source.

Experiment: Phase 1 (1a/1b) pharmacokinetics: plasma concentrations after single IV dose (validated direct fluorescence reader assay), noncompartmental analysis
Format: in vivo, human
Conditions: for AUC0-24 hr / AUCall / AUClast / C10 m / Cmax / T1/2 / Tmax: 1.2 mg/kg single IV
Description: Phase 1 is a single-Principal Investigator, non-randomized, open-label, single-arm, cross-sectional study to evaluate the safety, PK profile, and imaging feasibility of Compound 1 in patients with solid cancers who require surgical excision. The main purpose of this study was to investigate the safety, PK, and feasibility of Compound 1 as an intra-operative optical imaging agent to detect tumors and metastatic lymph nodes in solid cancers. The study was intended to investigate the optimal dose range of Compound 1 for an adequate TBR and CNR of fluorescence obtained intraoperatively at 24 (±8) hours post dosing and with ex vivo specimens using ICG compatible cameras and imaging devices.
Phase 1 enrolled 30 patients with solid cancers (HNSCC, breast cancer, esophageal cancer, or colorectal cancer) who have a biopsy-confirmed diagnosis of respective tumor types and are scheduled to undergo surgical resection of the tumor. The study design included a standard 3+3 design for the dose-escalation portion (Phase 1a; N=18 maximum) followed by a dose-expansion portion (Phase 1b; N=15). All patients received a single I.V. dose of Compound 1, followed by routine surgery approximately 24 hours after infusion of Compound 1.
Phase 1a was a dose-finding study performed in 5 cohorts of 3 patients each. The dose levels evaluated were […], and 1.2 mg/kg, in this sequence. Inter-cohort dose escalation took place after the last patient in the previous cohort completed the Day 10 safety assessment. Safety, PK, and imaging feasibility were evaluated in both the Phase 1a and 1b portions of the study. Patient safety is assessed during the study and for up to 10 days post-dose.
Study design: Single Compound 1 IV dose was administered as a 1-5 minute IV infusion to patients in five cohorts (0.1, 0.3, 0.5, 0.8, and 1.2 mg/kg) with three patients per cohort in Phase 1a and 15 patients at a dose of 1.2 mg/kg in Phase 1b. Patient demographic information including tumor types is presented in Table 4 and 5 for Phase 1a and Table 5 for Phase 1b. Intertek Pharmaceutical Services (San Diego, Calif.) determined Compound 1 plasma concentrations using a validated direct fluorescence reader assay. Pacific BioDevelopment (Davis, Calif.) performed the PK analysis.
Sample collection: Blood samples were collected prior to infusion and at 10 minutes and 0.5, 1, 3, 8, 24, 48, 72, and 240 hours after infusion.
Analysis: Plasma concentration versus time profiles were generated for each patient. Pharmacokinetic parameters were estimated using Phoenix WinNonlin (version 8.0). According to SOP, concentrations reported as BQL were set to 0 except for the 0.5 h sample for subject #ON1102, which was set to LLOQ/2 ([…] value used in parameter calculations) and the 24 and 48 h samples.
If the coefficient of determination for the terminal slope estimation was less than 0.8, T1/2 was not reported (NR). AUC extrapolated to infinity is not reported for any data set because in all cases the % extrapolated AUC was greater than 20% and thus the AUCinf estimate would not be reliable. The concentration at 10 minutes, the first time point measured (C10m), was also reported for each patient.
The area under the plasma concentration versus time curves from dosing to the last time point with a measurable concentration (AUClast) was estimated by the linear trapezoid method. The last three or more time points were used to estimate the elimination rate constant (λz) which was used to estimate the terminal-phase half-life (T1/2) and AUC from zero to infinity (AUCINF) from the following equations: […]

## PEO90-140-b-P(DBA60-150-r-ICG0-3-r-AMA0-3) [Compound 1]
Phase 1a, mean
  AUC0-24 hr: 495 µg·h/mL
  AUCall: 842 µg·h/mL
  AUClast: 682 µg·h/mL
  C10 m: 31.7 µg/mL
  Cmax: 31.7 µg/mL
  T1/2: 36.5 h
  Tmax: 10.2 min
Phase 1a, median
  AUC0-24 hr: 563 µg·h/mL
  AUCall: 1020 µg·h/mL
  AUClast: 891 µg·h/mL
  C10 m: 33.0 µg/mL
  Cmax: 33.0 µg/mL
  T1/2: 32.5 h
  Tmax: 10.2 min
Phase 1a, 1.20 mg/kg, 0.170 hr, individual subject
  Plasma Conc: 28.0 µg/mL and 34.1 µg/mL and 33.0 µg/mL
Phase 1a, 1.20 mg/kg, 0.170 hr, mean
  Plasma Conc: 31.7 µg/mL
Phase 1a, 1.20 mg/kg, 0.500 hr, individual subject
  Plasma Conc: 23.9 µg/mL and 30.5 µg/mL and 31.8 µg/mL
Phase 1a, 1.20 mg/kg, 0.500 hr, mean
  Plasma Conc: 28.7 µg/mL
Phase 1a, 1.20 mg/kg, 1.00 hr, individual subject
  Plasma Conc: 23.9 µg/mL and 32.1 µg/mL and 25.8 µg/mL
Phase 1a, 1.20 mg/kg, 1.00 hr, mean
  Plasma Conc: 27.3 µg/mL
Phase 1a, 1.20 mg/kg, 3.00 hr, individual subject
  Plasma Conc: 24.5 µg/mL and 28.4 µg/mL and 27.8 µg/mL
Phase 1a, 1.20 mg/kg, 3.00 hr, mean
  Plasma Conc: 26.9 µg/mL
Phase 1a, 1.20 mg/kg, 8.00 hr, individual subject
  Plasma Conc: 20.5 µg/mL and 24.4 µg/mL and 28.4 µg/mL
Phase 1a, 1.20 mg/kg, 8.00 hr, mean
  Plasma Conc: 24.4 µg/mL
Phase 1a, 1.20 mg/kg, 24.0 hr, individual subject
  Plasma Conc: BQL (BQL (<10 μg/mL), set = 0 for PK analysis) and 18.3 μg/mL and 15.6 μg/mL
Phase 1a, 1.20 mg/kg, 24.0 hr, mean
  Plasma Conc: 11.3 µg/mL
Phase 1a, 1.20 mg/kg, 48.0 hr, individual subject
  Plasma Conc: BQL (BQL (<10 μg/mL), set = 0 for PK analysis) and 15.6 μg/mL and 10.8 μg/mL
Phase 1a, 1.20 mg/kg, 48.0 hr, mean
  Plasma Conc: 8.80 µg/mL
Phase 1a, 1.20 mg/kg, 72.0 hr, individual subject
  Plasma Conc: BQL (BQL (<10 μg/mL), set = 0 for PK analysis)
Phase 1a, 1.20 mg/kg, 72.0 hr, mean
  Plasma Conc: 0.00 µg/mL
Phase 1a, 1.20 mg/kg, 240 hr, individual subject
  Plasma Conc: BQL (BQL (<10 μg/mL), set = 0 for PK analysis)
Phase 1a, 1.20 mg/kg, 240 hr, mean
  Plasma Conc: 0.00 µg/mL
Phase 1a, 0.1-1.2 mg/kg
  Exposure in relation to dose: dose-related; also recorded: increased proportionally with dose
Phase 1b, 1.2 mg/kg
  Mean AUC0-24hr: 638 µg·h/mL
  Mean terminal-phase half-life: 46.4 h
Phase 1b, individual subject
  AUC0-24 hr: 625 µg·h/mL and 606 µg·h/mL and 502 µg·h/mL and 787 µg·h/mL and 730 µg·h/mL and 585 µg·h/mL and 740 µg·h/mL and 630 µg·h/mL and 684 µg·h/mL and 626 µg·h/mL and 693 µg·h/mL and 562 µg·h/mL and 565 µg·h/mL and 520 µg·h/mL and 721 µg·h/mL
  AUCall: 2690 µg·h/mL and 2150 µg·h/mL and 2120 µg·h/mL and 1460 µg·h/mL and 2550 µg·h/mL and 1100 µg·h/mL and 2740 µg·h/mL and 1170 µg·h/mL and 939 µg·h/mL and 1090 µg·h/mL and 3190 µg·h/mL and 1120 µg·h/mL and 747 µg·h/mL and 3350 µg·h/mL
  AUClast: 1430 µg·h/mL and 1280 µg·h/mL and 1110 µg·h/mL and 1270 µg·h/mL and 1480 µg·h/mL and 961 µg·h/mL and 1580 µg·h/mL and 1020 µg·h/mL and 684 µg·h/mL and 971 µg·h/mL and 1740 µg·h/mL and 968 µg·h/mL and 957 µg·h/mL and 520 µg·h/mL and 1780 µg·h/mL
  C10 m: 30.3 µg/mL and 31.4 µg/mL and 25.5 µg/mL and 40.0 µg/mL and 47.6 µg/mL and 32.6 µg/mL and 31.3 µg/mL and 36.5 µg/mL and 32.1 µg/mL and 35.8 µg/mL and 33.0 µg/mL and 28.0 µg/mL and 28.5 µg/mL and 27.5 µg/mL and 38.6 µg/mL
  Cmax: 32.4 µg/mL and 32.6 µg/mL and 27.6 µg/mL and 42.2 µg/mL and 47.6 µg/mL and 34.3 µg/mL and 37.7 µg/mL and 34.1 µg/mL and 36.4 µg/mL and 32.0 µg/mL and 29.9 µg/mL and 29.2 µg/mL and 38.6 µg/mL
  T1/2: 43.3 h and 61.4 h and 34.4 h and 38.4 h and 33.6 h and 46.8 h and 34.5 h and 33.4 h and 27.7 h and 83.0 h and 45.5 h and 42.6 h and 77.9 h
  Tmax: 180 min and 60 min and 30 min and 10.2 min
Phase 1b, mean
  AUC0-24 hr: 638 µg·h/mL
  AUCall: 1840 µg·h/mL
  AUClast: 1180 µg·h/mL
  C10 m: 33.2 µg/mL
  Cmax: 34.8 µg/mL
  T1/2: 46.4 h
  Tmax: 58 min
Phase 1b, median
  AUC0-24 hr: 626 µg·h/mL
  AUCall: 1460 µg·h/mL
  AUClast: 1110 µg·h/mL
  C10 m: 32.1 µg/mL
  Cmax: 34.1 µg/mL
  T1/2: 42.6 h
  Tmax: 60 min
Phase 1b, 1.2 mg/kg, 0.170 hr, individual subject
  Plasma Conc: 27.5 µg/mL and 38.6 µg/mL and 30.3 µg/mL and 31.4 µg/mL and 25.5 µg/mL and 40.0 µg/mL and 47.6 µg/mL and 32.6 µg/mL and 31.3 µg/mL and 36.5 µg/mL and 32.1 µg/mL and 35.8 µg/mL and 33.0 µg/mL and 28.0 µg/mL and 28.5 µg/mL
Phase 1b, 1.2 mg/kg, 0.170 hr, mean
  Plasma Conc: 33.2 µg/mL
Phase 1b, 1.2 mg/kg, 0.170 hr, median
  Plasma Conc: 32.1 µg/mL
Phase 1b, 1.2 mg/kg, 0.500 hr, individual subject
  Plasma Conc: 29.2 μg/mL and 35.2 μg/mL and 30.3 μg/mL and 28.5 μg/mL and 27.6 μg/mL and 40.0 μg/mL and 44.1 μg/mL and 32.0 μg/mL (2×) and 28.9 μg/mL and 34.5 μg/mL and 32.9 μg/mL and 36.4 μg/mL and 31.4 μg/mL and 29.8 μg/mL
Phase 1b, 1.2 mg/kg, 0.500 hr, mean
  Plasma Conc: 32.9 µg/mL
Phase 1b, 1.2 mg/kg, 0.500 hr, median
  Plasma Conc: 32.0 µg/mL
Phase 1b, 1.2 mg/kg, 1.00 hr, individual subject
  Plasma Conc: 25.9 μg/mL and 33.0 μg/mL and 31.3 μg/mL (2×) and 32.6 μg/mL and 23.3 μg/mL and 42.2 μg/mL (2×) and 29.9 μg/mL (2×) and 37.7 μg/mL and 34.1 μg/mL and 35.4 μg/mL and 34.3 μg/mL and 26.8 μg/mL
Phase 1b, 1.2 mg/kg, 1.00 hr, mean
  Plasma Conc: 32.7 µg/mL
Phase 1b, 1.2 mg/kg, 1.00 hr, median
  Plasma Conc: 32.6 µg/mL
Phase 1b, 1.2 mg/kg, 3.00 hr, individual subject
  Plasma Conc: 27.5 μg/mL and 34.3 μg/mL (2×) and 32.4 μg/mL and 31.3 μg/mL and 25.0 μg/mL and 40.1 μg/mL and 35.3 μg/mL and 30.3 μg/mL and 29.6 μg/mL and 31.5 μg/mL and 33.3 μg/mL and 31.2 μg/mL and 26.4 μg/mL and 25.4 μg/mL
Phase 1b, 1.2 mg/kg, 3.00 hr, mean
  Plasma Conc: 31.2 µg/mL
Phase 1b, 1.2 mg/kg, 3.00 hr, median
  Plasma Conc: 31.3 µg/mL
Phase 1b, 1.2 mg/kg, 8.00 hr, individual subject
  Plasma Conc: 21.1 μg/mL and 28.3 μg/mL and 31.3 μg/mL and 26.1 μg/mL and 23.6 μg/mL (2×) and 35.8 μg/mL and 32.6 μg/mL and 25.0 μg/mL and 33.6 μg/mL and 27.9 μg/mL and 32.4 μg/mL and 27.8 μg/mL and 30.0 μg/mL and 24.5 μg/mL
Phase 1b, 1.2 mg/kg, 8.00 hr, mean
  Plasma Conc: 28.2 µg/mL
Phase 1b, 1.2 mg/kg, 8.00 hr, median
  Plasma Conc: 27.9 µg/mL
Phase 1b, 1.2 mg/kg, 24.0 hr, individual subject
  Plasma Conc: 18.9 μg/mL and 29.8 μg/mL and 15.5 μg/mL and 20.2 μg/mL and 15.0 μg/mL and 23.9 μg/mL and 22.7 μg/mL and 19.5 μg/mL and 26.2 μg/mL and 20.3 μg/mL (2×) and 21.2 μg/mL and 18.6 μg/mL and 25.6 μg/mL and 21.0 μg/mL
Phase 1b, 1.2 mg/kg, 24.0 hr, mean
  Plasma Conc: 21.2 µg/mL
Phase 1b, 1.2 mg/kg, 24.0 hr, median
  Plasma Conc: 20.3 µg/mL
Phase 1b, 1.2 mg/kg, 48.0 hr, individual subject
  Plasma Conc: BQL (BQL (<10 μg/mL), set = 0 for PK analysis) (2×) and 19.9 μg/mL and 18.5 μg/mL and 12.6 μg/mL and 12.0 μg/mL and 16.3 μg/mL and 13.3 μg/mL and 11.8 μg/mL and 15.0 μg/mL and 12.5 μg/mL and 10.2 μg/mL and 22.0 μg/mL and 12.8 μg/mL and 12.3 μg/mL
Phase 1b, 1.2 mg/kg, 48.0 hr, mean
  Plasma Conc: 12.6 µg/mL
Phase 1b, 1.2 mg/kg, 48.0 hr, median
  Plasma Conc: 12.6 µg/mL
Phase 1b, 1.2 mg/kg, 72.0 hr, individual subject
  Plasma Conc: BQL (BQL (<10 μg/mL), set = 0 for PK analysis) (8×) and 18.7 μg/mL and 14.9 μg/mL and 10.4 μg/mL and 12.0 μg/mL and 12.8 μg/mL and 13.8 μg/mL and 17.3 μg/mL
Phase 1b, 1.2 mg/kg, 72.0 hr, mean
  Plasma Conc: 6.66 µg/mL
Phase 1b, 1.2 mg/kg, 72.0 hr, median
  Plasma Conc: 0.00 µg/mL
Phase 1b, 1.2 mg/kg, 240 hr, individual subject
  Plasma Conc: BQL (BQL (<10 μg/mL), set = 0 for PK analysis)
Phase 1b, 1.2 mg/kg, 240 hr, mean
  Plasma Conc: 0.00 µg/mL
Phase 1b, 1.2 mg/kg, 240 hr, median
  Plasma Conc: 0.00 µg/mL
From 0.3 through 1.2 mg/kg
  C10 in relation to dose: appears to be dose proportional
